This note sets out measurements from patent publication US6191256A, “Recombinant factor VIII binding peptides” (Bayer Corporation, priority 1998, dated 2001).

For test [1], the target named is T1, rFVIII (Homo sapiens, UniProt P00451). The experiment in a line: rFVIII activity recovery from peptide columns by chromogenic substrate assay (COATEST). The format is biochemical. The settings on record: for 0.5M CaCl2 IU / 2% acetic acid % total / 2% acetic acid IU / Flow through % total / Total IU / 0.5M CaCl2 % total / Flow through IU: Table 8; for 0.5M CaCl2 % total: activity recovery; for Flow through IU: rFVIII activity in fraction. In a few lines:
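Peptide resin columns (0.4×5 cm, 5°C) loaded with 10,000 ng rFVIII in 1:10 PPF, step-eluted with 0.5 M and 1.0 M CaCl2, then 2% acetic acid (neutralized with Tris). Fractions stabilized with hSA; rFVIII activity recovery by chromogenic substrate assay against a MEGA 1-calibrated standard.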

Test [2] deals with T1, rFVIII. The experiment in a line: column format binding assay, rFVIII mass per fraction by sandwich capture ELISA for the light chain. The settings on record: for 0.5M CaCl2 ng / 0.5M CaCl2 % total / 2% acetic acid % total / 2% acetic acid ng / Flow through % total / Total ng / Flow through ng: Table 6; for Flow through ng: 10,000 ng rFVIII in 1:10 PPF injected, 5° C. In outline: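 Peptide resin columns (0.4×5 cm, 5 °C) loaded with 10,000 ng rFVIII in 1:10 PPF, 10 min residence time; step elution with 0.5 M and 1.0 M CaCl2 then 2% acetic acid (neutralized). Fraction rFVIII mass by light-chain sandwich ELISA; activity by chromogenic substrate; total protein by A280.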
(An ELISA detects its analyte on a solid surface through an enzyme-linked reagent.)

In test [3] the target is T1, rFVIII. In words: confirmatory binding assay in filtration plate format using 14C-rFVIII. The settings on record: for Total dpm / 0.5M CaCl2 % total / 2% acetic acid % total / 2% acetic acid dpm / 0.5M CaCl2 dpm / beads % total / beads dpm: Table 4; for Total dpm / beads % total / beads dpm: 14C-rFVIII 30 nM; for 0.5M CaCl2 % total / 2% acetic acid % total / 2% acetic acid dpm / 0.5M CaCl2 dpm: 14C-rFVIII 30 nM in PPF, 5 mg beads; for 0.5M CaCl2 dpm: 5.0 × 10^15 dpm/mole, 5° C.; for beads % total / beads dpm: remaining on beads after washes. In outline:
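Peptides synthesized on TOYOPEARL AF amino 650 M resin (0.1 mmole/g) were tested in triplicate after equilibration in 20 mM imidazole, 10 mM CaCl2, 0.105 M NaCl, pH 6.9. The beads were incubated 1 hour at 5° C with 20-30 nM 14C-rFVIII in neat PPF, then washed with buffer, 0.5 M and 1.0 M CaCl2, and 2% acetic acid. Mass balance was taken from dpm of each fraction and of the beads.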

T1 sequence (P00451 20-2351): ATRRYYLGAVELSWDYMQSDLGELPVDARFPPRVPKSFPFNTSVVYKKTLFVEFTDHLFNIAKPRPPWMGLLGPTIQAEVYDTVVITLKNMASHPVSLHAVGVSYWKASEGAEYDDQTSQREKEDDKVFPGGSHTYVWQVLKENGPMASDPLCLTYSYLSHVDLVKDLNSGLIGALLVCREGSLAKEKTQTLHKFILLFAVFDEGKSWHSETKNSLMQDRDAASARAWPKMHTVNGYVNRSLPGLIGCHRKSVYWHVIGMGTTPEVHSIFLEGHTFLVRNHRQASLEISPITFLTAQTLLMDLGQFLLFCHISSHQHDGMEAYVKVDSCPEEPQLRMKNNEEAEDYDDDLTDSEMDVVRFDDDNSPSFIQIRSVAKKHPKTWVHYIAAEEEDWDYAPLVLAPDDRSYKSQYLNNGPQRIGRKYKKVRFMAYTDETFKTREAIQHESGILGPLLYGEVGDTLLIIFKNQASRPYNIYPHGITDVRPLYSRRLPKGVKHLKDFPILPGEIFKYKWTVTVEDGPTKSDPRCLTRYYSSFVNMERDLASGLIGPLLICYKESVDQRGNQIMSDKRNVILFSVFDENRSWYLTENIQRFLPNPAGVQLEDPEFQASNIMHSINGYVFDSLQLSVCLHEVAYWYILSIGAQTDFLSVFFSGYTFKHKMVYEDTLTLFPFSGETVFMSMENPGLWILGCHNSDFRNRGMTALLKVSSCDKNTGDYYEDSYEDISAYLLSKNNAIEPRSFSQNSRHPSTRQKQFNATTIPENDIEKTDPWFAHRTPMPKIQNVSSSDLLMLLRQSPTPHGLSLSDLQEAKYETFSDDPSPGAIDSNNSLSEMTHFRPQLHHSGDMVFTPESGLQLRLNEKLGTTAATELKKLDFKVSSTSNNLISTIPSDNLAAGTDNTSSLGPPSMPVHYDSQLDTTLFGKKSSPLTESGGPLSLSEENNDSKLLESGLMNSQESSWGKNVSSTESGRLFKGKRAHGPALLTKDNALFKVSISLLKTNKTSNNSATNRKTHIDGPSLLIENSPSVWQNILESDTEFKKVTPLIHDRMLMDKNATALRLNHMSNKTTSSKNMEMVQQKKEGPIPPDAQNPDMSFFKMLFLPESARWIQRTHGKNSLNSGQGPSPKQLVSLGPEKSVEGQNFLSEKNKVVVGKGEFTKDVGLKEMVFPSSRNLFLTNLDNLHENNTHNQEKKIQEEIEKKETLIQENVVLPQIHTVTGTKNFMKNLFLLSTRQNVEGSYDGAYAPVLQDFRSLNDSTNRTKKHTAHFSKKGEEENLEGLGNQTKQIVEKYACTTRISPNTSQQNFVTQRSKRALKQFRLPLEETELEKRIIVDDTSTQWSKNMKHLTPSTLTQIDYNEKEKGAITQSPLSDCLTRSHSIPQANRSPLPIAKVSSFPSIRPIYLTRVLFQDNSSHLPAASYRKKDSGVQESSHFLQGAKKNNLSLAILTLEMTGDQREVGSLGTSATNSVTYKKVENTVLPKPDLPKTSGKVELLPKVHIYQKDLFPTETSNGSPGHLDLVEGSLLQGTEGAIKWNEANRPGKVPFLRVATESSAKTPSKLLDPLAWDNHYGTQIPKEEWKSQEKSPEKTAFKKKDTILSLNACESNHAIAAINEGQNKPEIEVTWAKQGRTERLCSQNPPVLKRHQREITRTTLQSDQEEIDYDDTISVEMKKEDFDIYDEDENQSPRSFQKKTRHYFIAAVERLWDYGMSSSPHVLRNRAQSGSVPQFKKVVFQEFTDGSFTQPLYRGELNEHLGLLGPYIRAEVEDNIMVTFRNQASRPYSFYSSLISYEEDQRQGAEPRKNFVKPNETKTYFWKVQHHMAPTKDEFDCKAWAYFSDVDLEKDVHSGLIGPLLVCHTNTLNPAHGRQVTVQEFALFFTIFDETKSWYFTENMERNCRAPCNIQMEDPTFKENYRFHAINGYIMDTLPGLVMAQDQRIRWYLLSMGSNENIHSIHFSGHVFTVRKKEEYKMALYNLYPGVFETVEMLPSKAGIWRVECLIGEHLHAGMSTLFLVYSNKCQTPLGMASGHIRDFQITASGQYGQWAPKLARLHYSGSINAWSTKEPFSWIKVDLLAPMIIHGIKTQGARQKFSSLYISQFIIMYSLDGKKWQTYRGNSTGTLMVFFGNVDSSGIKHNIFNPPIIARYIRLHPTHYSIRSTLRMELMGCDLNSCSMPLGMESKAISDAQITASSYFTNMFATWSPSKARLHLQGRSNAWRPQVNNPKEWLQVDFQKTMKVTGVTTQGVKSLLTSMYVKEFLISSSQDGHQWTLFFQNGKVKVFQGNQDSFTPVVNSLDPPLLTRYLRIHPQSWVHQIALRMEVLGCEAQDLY
T1 sequence (P00451 1668-2351 limits assumed): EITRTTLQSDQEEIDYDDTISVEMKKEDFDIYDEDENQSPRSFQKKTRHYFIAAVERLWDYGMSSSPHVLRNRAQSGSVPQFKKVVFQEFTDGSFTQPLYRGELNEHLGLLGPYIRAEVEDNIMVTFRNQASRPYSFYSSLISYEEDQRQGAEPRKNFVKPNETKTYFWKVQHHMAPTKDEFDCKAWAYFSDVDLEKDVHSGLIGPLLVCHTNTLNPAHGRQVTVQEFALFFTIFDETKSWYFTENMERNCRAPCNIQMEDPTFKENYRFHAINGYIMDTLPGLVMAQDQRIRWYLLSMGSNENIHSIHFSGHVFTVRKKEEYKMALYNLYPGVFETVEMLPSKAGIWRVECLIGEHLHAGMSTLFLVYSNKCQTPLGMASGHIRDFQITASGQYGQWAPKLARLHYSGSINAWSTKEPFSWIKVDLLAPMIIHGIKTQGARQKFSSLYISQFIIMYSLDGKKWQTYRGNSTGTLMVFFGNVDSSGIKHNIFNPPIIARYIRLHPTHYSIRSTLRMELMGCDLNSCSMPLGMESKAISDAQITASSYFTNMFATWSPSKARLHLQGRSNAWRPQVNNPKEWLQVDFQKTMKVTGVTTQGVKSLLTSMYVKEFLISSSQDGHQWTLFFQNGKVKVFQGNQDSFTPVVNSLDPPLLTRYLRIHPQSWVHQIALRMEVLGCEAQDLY

For the substance 15 (VYGVGG) [compound 15], in test [1], the “0.5M CaCl2 IU” value turned out to be 27.2 IU, the “2% acetic acid % total” value came to 0%, the “2% acetic acid IU” value was found to be 0.08 IU and the “Flow through % total” value is 38%. In addition, in test [1], the “Total IU” value is 45.4 IU, the “0.5M CaCl2 % total” value turned out to be 60% and the “Flow through IU” value turned out to be 17.3 IU. The “Activity results % total” value in test [1] (Table 9, 0.5M CaCl2 fraction) turned out to be 60%. In addition, in test [2], the “0.5M CaCl2 ng” value is reported as 4611 ng, the “0.5M CaCl2 % total” value worked out at 55%, the “2% acetic acid % total” value stood at 1% and the “2% acetic acid ng” value worked out at 121 ng. In test [2], the “Flow through % total” value is 42%, the Total ng amounted to 8427 ng and the Flow through ng is listed as 3572 ng. For the same substance, in test [2] (Table 9, 0.5M CaCl2 fraction), the “ELISA results % total” value amounted to 55%. For the same substance, in test [3], the Total dpm was determined as 2330 dpm, the “0.5M CaCl2 % total” value was 93%, the “2% acetic acid % total” value turned out to be 5% and the “2% acetic acid dpm” value amounted to 115 dpm. Also, in test [3], the “0.5M CaCl2 dpm” value came out at 2162 dpm, the beads % total is 2% and the beads dpm was determined as 53 dpm.

Turning to 19 (FHFGLQ) [compound 19], in test [1], the “0.5M CaCl2 IU” value is on record as 9.9 IU, the “2% acetic acid % total” value turned out to be 7%, the “2% acetic acid IU” value came out at 1.4 IU and the “Flow through % total” value is recorded as 2%. In addition, in test [1], the “Total IU” value is reported as 19.5 IU, the “0.5M CaCl2 % total” value turned out to be 51% and the “Flow through IU” value is 0.5 IU. Further, in test [2], the “0.5M CaCl2 ng” value is 1075 ng, the “0.5M CaCl2 % total” value is given as 25%, the “2% acetic acid % total” value is 60% and the “2% acetic acid ng” value was 2569 ng. In addition, in test [2], the “Flow through % total” value is given as 0%, the Total ng was found to be 4283 ng and the Flow through ng worked out at 0 ng. In addition, in test [3], the Total dpm is reported as 2987 dpm, the “0.5M CaCl2 % total” value is given as 15%, the “2% acetic acid % total” value was 72% and the “2% acetic acid dpm” value turned out to be 2148 dpm. In addition, in test [3], the “0.5M CaCl2 dpm” value came to 457 dpm, the beads % total is given as 13% and the beads dpm turned out to be 382 dpm.

As for 20 (WHHHRG) [compound 20], in test [1], the “0.5M CaCl2 IU” value is 0.4 IU, the “2% acetic acid % total” value came to 45%, the “2% acetic acid IU” value was determined as 3.5 IU and the “Flow through % total” value is 0%. In addition, in test [1], the “Total IU” value is 7.8 IU, the “0.5M CaCl2 % total” value is 4% and the “Flow through IU” value turned out to be 0.0 IU. Further, in test [2], the “0.5M CaCl2 ng” value is reported as 36 ng, the “0.5M CaCl2 % total” value was 1%, the “2% acetic acid % total” value amounted to 95% and the “2% acetic acid ng” value is 4719 ng. In test [2], the “Flow through % total” value came out at 0%, the Total ng is 4966 ng and the Flow through ng is recorded as 0 ng. In test [3], the Total dpm is given as 3884 dpm, the “0.5M CaCl2 % total” value turned out to be 12%, the “2% acetic acid % total” value is on record as 54% and the “2% acetic acid dpm” value is reported as 2099 dpm. In addition, in test [3], the “0.5M CaCl2 dpm” value amounted to 485 dpm, the beads % total worked out at 33% and the beads dpm is 1300 dpm.

Consider 21 (HFQIFG) [compound 21], for which, in test [1], the “0.5M CaCl2 IU” value came to 11.4 IU, the “2% acetic acid % total” value was 19%, the “2% acetic acid IU” value is on record as 4.1 IU and the “Flow through % total” value is recorded as 0%. Further, in test [1], the “Total IU” value came to 21.2 IU, the “0.5M CaCl2 % total” value was determined as 53% and the “Flow through IU” value is 0.0 IU. For the same substance, in test [2], the “0.5M CaCl2 ng” value is on record as 1239 ng, the “0.5M CaCl2 % total” value stood at 22%, the “2% acetic acid % total” value came out at 60% and the “2% acetic acid ng” value was 3284 ng. In addition, in test [2], the “Flow through % total” value came out at 0%, the Total ng is on record as 5510 ng and the Flow through ng is listed as 0 ng. For the same substance, in test [3], the Total dpm worked out at 3484 dpm, the “0.5M CaCl2 % total” value came to 21%, the “2% acetic acid % total” value came out at 63% and the “2% acetic acid dpm” value is 2208 dpm. For the same substance, in test [3], the “0.5M CaCl2 dpm” value was 722 dpm, the beads % total was 16% and the beads dpm turned out to be 554 dpm.

As for 22 (FVFLVR) [compound 22], in test [1], the “0.5M CaCl2 IU” value came out at 0.0 IU, the “2% acetic acid % total” value was found to be 100%, the “2% acetic acid IU” value is 2.3 IU and the “Flow through % total” value is reported as 0%. Moreover, in test [1], the “Total IU” value was 2.3 IU, the “0.5M CaCl2 % total” value was 0% and the “Flow through IU” value was found to be 0.0 IU. Besides, in test [2], the “0.5M CaCl2 ng” value is 4 ng, the “0.5M CaCl2 % total” value is 0%, the “2% acetic acid % total” value is 100% and the “2% acetic acid ng” value is given as 4500 ng. Besides, in test [2], the “Flow through % total” value was 0%, the Total ng was 4504 ng and the Flow through ng is 0 ng. In addition, in test [3], the Total dpm was determined as 4116 dpm, the “0.5M CaCl2 % total” value is on record as 16%, the “2% acetic acid % total” value is listed as 19% and the “2% acetic acid dpm” value is recorded as 783 dpm. For the same substance, in test [3], the “0.5M CaCl2 dpm” value stood at 675 dpm, the beads % total was found to be 65% and the beads dpm is recorded as 2658 dpm. Also, in test [3] (plate format), the “binding of rFVIII in words” value is “tight binding”.
